# Key:
# [1] = ABTS radical cation assay; type: biochemical
# Experimental: FIG. 4: RoxP antioxidant activity under adverse conditions. The ability of RoxP to reduce ABTS radical cations, denoted by a decrease in absorbance at 734 nm, was tested in multiple settings. Different concentrations of recombinant RoxP (rRoxP) (0.2-3.2 μM) in sodium phosphate buffer (20 mM, pH 7.4) (A), rRoxP (2.7 μM) incubated with salt solutions (B), pre-heated rRoxP (2.7 μM) incubated for 20 min in temperatures ranging from RT to 98° C. and allowed to cool down to ambient temperature prior to activity measurements (C), or rRoxP (2 μM) stored at room temperature for up to 2 weeks (D) were added to a solution of pre-formed ABTS radicals and the absorbance recorded after 30 sec.
# The reduction of pre-formed ABTS radical cations in the presence of RoxP was analysed using a spectrophotometric assay previously described by Re et al. (1999 Free Radic Biol Med 26:1231-1237). 2,2′-azinobis(3-ethylbenzothiazoline-6-sulfonic acid) diammonium salt (ABTS) (Sigma-Aldrich) was initially dissolved in ddH2O to a concentration of […]. Potassium persulfate (Merck KGaA, Darmstadt, Germany) was subsequently added to a final concentration of 2.45 mM and the resulting solution kept dark and incubated overnight at RT. Formed ABTS radicals were diluted with PBS (pH 7.4) until reaching an absorbance of approximately 0.7 at 734 nm. Antioxidants (1.7 μM) were added (1:9 v/v) and the absorbance spectrum 500 to 900 nm recorded after 30 sec.
# [2] = RoxP interaction with coproporphyrin III (absorbance curves); type: binding; details: 1 mg/ml RoxP (100 μl) with 50 μg Coproporphyrin
# Experimental: 1 mg/ml RoxP (100 μl) was mixed with 50 μg Coproporphyrin (10 μl) and total volume was adjusted to 290 μl with PBS. Absorbance was measured at different wavelengths. The absorbance curves indicate binding of coproporphyrin III by RoxP (see FIG. 26).
# Lyophilisation of RoxP = type: physicochemical; details: RoxP dissolved in water, absence of further excipients
# Text: Lyophilisation of proteins is also a well-established procedure in the art and typically employs an aqueous solution of the protein to be lyophilised, optionally admixed with one or more suitable lyophilisation excipients, such as trehalose, sucrose, raffinose, maltodextrin, mannitol, and/or dextran. […] The inventors have additionally observed that mannitol, and particularly 2-6% w/v, preferably 2-5% w/v, more preferably 2-4% w/v, or even more preferably 2-3% w/v mannitol (relative to the volume of the solution to be lyophilised) was especially advantageous for production of stable cake and preservation of RoxP activity.
# THP-1 cells = assay: MTT viability assay, paraquat oxidative stress, monocytes; type: cell-based, human
# Experimental: Human keratinocytes (HaCat cells; disclosed in Boukamp et al. 1988 J Cell Biol 106:761-71 and available from Deutsches Krebsforschungszentrum, DKFZ, info@cell-lines-service.de; and also commercially available for example from Addexbio, San Diego, Calif., catalogue number T0020001) were grown in SFM medium supplemented with L-glutamine, EGF (epidermal growth factor) and bovine pituitary extract (Gibson, Invitrogen) until 90% confluency in 96-well plates (Nunc A/S, Roskilde, Denmark). Human monocytes (THP-1 cells; disclosed in Tsuchiya et al. 1980 Int J Cancer 26:171-6; commercially available for example from Sigma-Aldrich, catalogue number 88081201; kindly provided by Dr Arne Egesten, Lund University) were cultured in RPMI 1640 medium supplemented with Glutamax-1 (Gibco®, ThermoFisher Scientific), 100 μg/ml streptomycin, 100 μg/ml penicillin, and 10% v/v foetal calf serum (ThermoFisher Scientific). All cells were grown at 37° C. in 5% CO2 and 95% humidity.
# HaCat cells cultured to 90% confluency, or THP-1 cells (1.2×10^6 cells/well) in a 96-well plate were treated with 2 mM paraquat (Sigma-Aldrich) and/or 5 μM RoxP for 24-48 h. […] Viability was measured by the addition of 0.5 mg/ml 3-(4,5-demethylthiazol-2-yl)-2,5-diphenyltetrazolium bromide (MTT) for 1-5 hours. […] The samples incubated for 30 minutes and absorbance at 550 nm was measured using a Wallac 1420 Multilabel Counter ([…]). […]
molecule,measurement,setting,value
"RoxP: radical oxygenase of Propionibacterium acnes, secreted antioxidant protein of C. acnes; SEQ ID NO: 1 for strain KPA171202 (protein, Cutibacterium acnes) MFVQIAASLAAASSIALGIPGAATPIDESQLPVGPQVSVTDSAQHTGPFAASSPLTITVKPGAPCVRADGYQESMVTRVLDDKGHQVWTGTFDESKLIGGTGLGTATFHVGSPAAAFNFHGSERTTYRTLSYCAYPHYVNGTRERLSQVSVKTFMVDPALN",reduction of ABTS radical when FMN/FDN was added,"[1]; RoxP 2 mg/ml 10 μl, FMN/FDN 1 mM 1 μl or 3 μl, especially FDN",increased reduction
same,activity after long-term storage at room temperature,[1]; rRoxP 2 μM stored at room temperature for up to 2 weeks,able to endure
same,antioxidant activity in presence of CaCl2,[1]; rRoxP 2.7 μM incubated with salt solutions,loss of activity
same,temperature endured without any significant loss of activity,"[1]; rRoxP 2.7 μM pre-heated 20 min, RT to 98° C., cooled before measurement",above 70 °C
same,antioxidant activity in presence of NaCl,"[1]; rRoxP 2.7 μM, physiological concentrations of NaCl",withstood
same,reducing activity on ABTS radical cations,"[1]; rRoxP 0.2-3.2 μM, sodium phosphate buffer 20 mM pH 7.4",concentration-dependent reducing activity
same,binding of coproporphyrin III,[2],binding
same,preservation of RoxP activity after lyophilisation,Lyophilisation of RoxP,satisfactorily preserved the activity
same,effect on negative oxidative effect of paraquat (cell viability),"THP-1 cells; 2 mM paraquat, 5 μM RoxP (1:400 RoxP:oxidizer), 48 h, effect more prominent than in keratinocytes",completely inhibited
same,overall viability in the absence of an added oxidizer,THP-1 cells; no paraquat,increase the overall viability

# — patent US20220000762A1, “COMPOSITIONS FOR TREATING OXIDATIVE STRESS-ASSOCIATED SKIN DISEASES AND SKIN AGEING AND DIAGNOSIS OF OXIDATIVE STRESS-ASSOCIATED SKIN DISEASES” (priority 2019, published 2022)
